B1: anti-CI-M6PR VHH7 (VHH)
VHH: QVQLQESGGGLVQPGGSLRLSCAASGIIFSDNRMDWYRQAPGKQREWVATLASYGWKTYADSVKGRFTISRDNTKNTVYLRMNSLKPEDTAVYYCKASSPVLNDIWGQGTQVTVSS
notes: His6-tagged (Pichia pastoris)
B2: anti-CI-M6PR VHH1 (VHH)
VHH: QVQLQESGGGLVQPGGSLRLSCVASGFTFDRYWMNWLRQIPGKEIEWVSTINTGGTGTYYDDSVKGRFSISRDDAKNTLYLTMNSLKTEDTAVYYCARGATYYRGNSAIRGQGTQVTVSS
notes: His6-tagged; made in Pichia pastoris, later also in E. coli WK6
B3: anti-CI-M6PR VHH5 (VHH)
VHH: QVQLQESGGGLVQAGGSLKLSCAAAGRTFSRLAMGWFRQAPGKEREFVAAISENGDSIHYSDSVKGRFAVSRDNAKNTVYLQMNSLKPEDTAIYYCAADRAAYYCSGSGCYPSRAPAAASYDYWGQGTQVTVSS
notes: as for B2
B4: anti-CI-M6PR VHH8 (VHH)
VHH: QVQLQESGGGLVQAGGSLRLSCEASGRTFNTYNWGWFRQAPGKEREFVAAIRWSSSKTSYADSVKGRFTISRDNAKNTIYLQMNSLKPEDTAVYYCAASIVDFTTNPSHFGSWGQGTQVTVSS
notes: His6-tagged (Pichia pastoris)
B5: anti-CI-M6PR VHH3 (VHH)
VHH: QVQLQESGGGLVQPGGSLRLSCAAFGLNFKNFDMIWFRQAPGEERDIVAAISSSSSTIWYEDSVKGRFTISRDNAKNTVYLQMNSLKPEDTAVYYCAAALTSWRRPDYWGQGTQVTVSS
notes: His6-tagged; made in Pichia pastoris
B6: anti-CI-M6PR VHH4 (VHH)
VHH: QVQLQESGGGLVQAGGSLRLSCAASGRTFSNYVMGWFRQAPGKEREFVGSISQGGKMTYYPDSVKGRFTISRDNAKNTMYLQMDGLKPEDTAVYYCAVSRGYPMVRVSEVDYWGQGTQVTVSS
notes: as for B5
B7: anti-CI-M6PR VHH6 (VHH)
VHH: QVQLQESGGGLVQAGGSLRLSCAVSGSISSIGGMGWFRQAPGKQREFVAVILNNSGMTSYADSVKGRFTISRGNSKNTMYLQMNSLKPEDTAVYYCNYSGYWGQGTQVTVSS
notes: His6-tagged; made in E. coli
B8: anti-CI-M6PR VHH9 (VHH)
VHH: QVQLQESGGGLVQAGGSLRLSCAASGTILSIKTMGWYRQAPGKEREWVATITSSSIPMYADSVKGRFTISRDDAKNTVYLQMNSLKPEDTGVYYCNAPWTDYWGQGTQVTVSS
notes: as for B5
B9: anti-CI-M6PR VHH10 (VHH)
VHH: QVQLQESGGGSVQAGGSLRLSCAPAGRTFSRIRMGWFRQAPGKEREFVAAISSGGLSYYADSMKGRFTISRDNAKNTVLLQMNSLEPDDTAVYYCAAVLNDYIDDYVARNPTLYDYWGQGTQVTVSS
notes: as for B5
B10: anti-CI-M6PR VHH11 (VHH)
VHH: QVQLQESGGGLVQAGDSLKLSCTASGPTFSEITGGWFRQVPGKEREFVASISSTGITTYYTDSVKGRFTVSRDNAKNTMYLQMNSLKPEDTGVYYCAARSTSRSIAITVGYDYWGQGTQVTVSS
notes: as for B5

Experiments:
[1] = molecular target: T1, recombinant human domain 1-3His6 of the cation-independent mannose-6-phosphate receptor (human, UniProt P11717 41-467); assay: BLI exp 1, dissoc pH 7
T1 construct: Biotinylated (NHS-PEG4-biotin) for BLI; Glycosylated; also called hDom1-3His6; hCI-M6PRD1-D3
Experimental: (§1) For each of the 11 anti-CI-M6PR VHHs, a biolayer interferometry (BLI) experiment was performed in which the hDom₁₋₃His₆ was biotinylated and coupled to streptavidin biosensor tips. Afterwards, the tips were incubated with serially diluted VHHs during the association phase and dissociation was performed at pH 7.4. Similarly, dissociation was performed at pH 7.0, pH 6.0 and pH 5.0 as well after regeneration of the biosensor tips. […] The anti-CI-M6PR antibody (clone 2G11) and GBP were used as positive and negative controls, respectively.
Analysis of the binding kinetics was performed using an Octet Red96 (FortéBio) device with Streptavidin SA Biosensor tips (VWR 733-2145). Therefore, 1 mL of human domain₁₋₃His₆ (0.5 mg/mL in 50 mM MES, 150 mM NaCl, pH 6.5) was incubated at room temperature for 30 minutes with EZ-Link™ NHS-PEG4-Biotin (1 mg) (Thermo Fischer A39259) and NaHCO₃ (100 mM). Biotinylated human domain₁₋₃His₆ was purified using a Zeba spin desalting Column™ (7K MWCO, 2 mL, Thermo Fischer 89890) and 1 μg/mL was used for immobilization on the Streptavidin SA Biosensor tips. The loaded tips were dipped into a particular anti-CI-M6PR VHH solution, serially diluted in kinetics buffer (0.2M NaH₂PO₄, 0.1M Na⁺ citrate, 0.01% BSA, 0.002% Tween20, pH 7.4). This was followed by dissociation of the particular anti-CI-M6PR VHH in kinetics buffer of pH 7.4, followed by regeneration in Glycine (10 mM, pH 3) and neutralisation. Same cycle was repeated but the dissociation was performed at pH 7.0, 6.0, 5.0, 4.5 and 4.0. A reference well and reference sensors were subtracted from ligand sensors afterwards and Savitsky-Golay filtering was applied on the data. Fitting of the data was performed using a 1:1 model, grouped per pH of dissociation.

[2] = molecular target: T1, recombinant human domain 1-3His6 of the …; assay: ELISA on coated antigen, 1st of 2 repeats
Experimental: (§2) FIGS. 4A-4B. Affinity of anti-CI-M6PR VHHs for recombinant human CI-M6PR Domain 1-3His₆ determined by ELISA. A & B. Measurements for each of the 11 anti-CI-M6PR VHHs in serial dilution binding to the coated human CI-M6PR Domain 1-3His₆ antigen. Detection was performed using an anti-VHH antibody coupled to HRP, and measured as the absorbance of the TMB substrate at 450 nm, correlating to the amount of bound VHH as plotted at the Y-axis. The Log₁₀ concentrations of the serially diluted VHHs were plotted at the X-axis. […] A & B represent replicates but using a different concentration of human CI-M6PR Domain 1-3His₆ (in (FIG. 4A): 0-0.75 μM and in (FIG. 4B): 0-1 μM).
(§3) We evaluated the affinity of the VHHs against the hDom₁₋₃His₆ using ELISA. Coated hDom₁₋₃His₆ was incubated with serially diluted VHH that was afterwards detected using an anti-VHH antibody, coupled to HRP.

[3] = molecular target: T1, recombinant human domain 1-3His6 of the …; assay: BLI exp 2, dissoc pH 5
Experimental: as §1
Analysis of the binding kinetics was performed using an Octet Red96 (FortéBio) device with Streptavidin SA Biosensor tips (VWR, 733-2145). To this end, 1 mL of hCI-M6PR_D1-D3 (0.5 mg/mL in 50 mM MES, 150 mM NaCl, pH 6.5) was incubated at room temperature for 30 minutes with a two-fold molar excesses of EZ-Link™ NHS-PEG₄-Biotin (Thermo Fischer, A39259) and NaHCO₃ (100 mM, pH 8.3). Biotinylated hCIMPR_D1-D3 was purified using a Zeba spin desalting column (Thermo Fischer, 89890) and protein concentration was calculated by measuring the absorbance at 280 nm (extinction coefficient 50320 M¹ cm⁻¹). Two-fold biotin-labelled antigen was loaded on the tips (2.5 μg/mL) and subsequently dipped into a particular anti-CI-M6PR VHH-containing solution (ranging from 0-100 nM). Serial VHH dilutions were made in kinetics buffer (0.2 M Na₂HPO₄, 0.1 M Na⁺ citrate, 0.01% BSA, 0.002% Tween20, pH 7.4). After association (100 sec), dissociation was conducted (500 sec) for each anti-CI-M6PR VHH in the kinetics buffer, followed by biosensor regeneration in glycine (10 mM, pH 3) and neutralisation. The same cycle was repeated with dissociation performed in kinetics buffer of pH 7.0, 6.5, 6.0, 5.5, and 5.0.
A reference well and reference sensors were subtracted from ligand sensors afterwards and Savitsky-Golay filtering was applied on the data. Fitting of the data was performed using a 1:1 model, grouped per dissociation pH.

[4] = molecular target: T1, recombinant human domain 1-3His6 of the …; assay: BLI at pH 7.4, 2nd of 2 repeats
[5] = molecular target: T1, recombinant human domain 1-3His6 of the …; assay: ELISA on coated antigen, 2nd of 2 repeats
Experimental: as §2, §3

Binder | Kd [1] | koff [1] | kon [1] | EC50 [2] | koff [3] | kon [3] | Kd [4] | koff [4] | kon [4] | EC50 [5]
B1 | 8.08 nM | 0.00698 s⁻¹ | 864000 M⁻¹ s⁻¹ | 0.0109 nM | 0.055 s⁻¹ | 55000 M⁻¹ s⁻¹ | 9.08 nM | 0.0118 s⁻¹ | 1.3e+06 M⁻¹ s⁻¹ | 1.19 nM
B2 | 6.05 nM | ~0.00756 s⁻¹ | 1.25e+06 M⁻¹ s⁻¹ | 1.78 nM | 0.072 s⁻¹ |  | ~11.2 nM | 0.0099 s⁻¹ | 1e+06 M⁻¹ s⁻¹ | 19.4 nM
B3 | 0.346 nM | 0.000412 s⁻¹ | 1.19e+06 M⁻¹ s⁻¹ | 0.0816 nM | 0.033 s⁻¹ | 2.33e+08 M⁻¹ s⁻¹ | ~0.1 nM | 0.00018 s⁻¹ | 1.8e+06 M⁻¹ s⁻¹ | 0.0647 nM
B4 | 6.45 nM | 0.00368 s⁻¹ | 570000 M⁻¹ s⁻¹ | 0.11 nM | 0.084 s⁻¹ | 2.4e+06 M⁻¹ s⁻¹ |  | 0.00065 s⁻¹ |  | 0.165 nM
B5 | 0.269 nM | 0.000604 s⁻¹ | 2.24e+06 M⁻¹ s⁻¹ | 0.0379 nM | 0.000369 s⁻¹ | 55600 M⁻¹ s⁻¹ | 7.1 nM | 0.000345 s⁻¹ | 48600 M⁻¹ s⁻¹ | 0.104 nM
B6 | 2.2 nM | 0.00126 s⁻¹ | 572000 M⁻¹ s⁻¹ |  | 0.00729 s⁻¹ | 729000 M⁻¹ s⁻¹ |  | 0.00133 s⁻¹ |  | 70.1 nM
B7 | 2.65 nM | 0.00227 s⁻¹ | 856000 M⁻¹ s⁻¹ | 84.2 nM | 0.0156 s⁻¹ | 330000 M⁻¹ s⁻¹ | 4.74 nM | 0.00352 s⁻¹ | 743000 M⁻¹ s⁻¹ | 
B8 | 0.476 nM | 0.00051 s⁻¹ | 1.07e+06 M⁻¹ s⁻¹ | 0.00642 nM | 0.0496 s⁻¹ | 590000 M⁻¹ s⁻¹ | 0.282 nM | 0.000444 s⁻¹ | 1.57e+06 M⁻¹ s⁻¹ | 0.251 nM
B9 |  | 0.00148 s⁻¹ | 99300 M⁻¹ s⁻¹ | 0.0657 nM | 0.0106 s⁻¹ | 91100 M⁻¹ s⁻¹ | 46.5 nM | 0.00177 s⁻¹ | 38100 M⁻¹ s⁻¹ | 0.224 nM
B10 | 20.3 nM | 0.00394 s⁻¹ | 194000 M⁻¹ s⁻¹ | 0.249 nM | 0.0253 s⁻¹ | 225000 M⁻¹ s⁻¹ | 51 nM | 0.00391 s⁻¹ | 76700 M⁻¹ s⁻¹ | 30.5 nM

Source: patent publication US20250263490A1 (VIB VZW, published 2025)
